Values quoted from earlier work, collected in article PMC4336166.

Target: clathrin coat (Homo sapiens) (UniProt Q00610)
Chain of UniProt Q00610 (Q00610 2-1675): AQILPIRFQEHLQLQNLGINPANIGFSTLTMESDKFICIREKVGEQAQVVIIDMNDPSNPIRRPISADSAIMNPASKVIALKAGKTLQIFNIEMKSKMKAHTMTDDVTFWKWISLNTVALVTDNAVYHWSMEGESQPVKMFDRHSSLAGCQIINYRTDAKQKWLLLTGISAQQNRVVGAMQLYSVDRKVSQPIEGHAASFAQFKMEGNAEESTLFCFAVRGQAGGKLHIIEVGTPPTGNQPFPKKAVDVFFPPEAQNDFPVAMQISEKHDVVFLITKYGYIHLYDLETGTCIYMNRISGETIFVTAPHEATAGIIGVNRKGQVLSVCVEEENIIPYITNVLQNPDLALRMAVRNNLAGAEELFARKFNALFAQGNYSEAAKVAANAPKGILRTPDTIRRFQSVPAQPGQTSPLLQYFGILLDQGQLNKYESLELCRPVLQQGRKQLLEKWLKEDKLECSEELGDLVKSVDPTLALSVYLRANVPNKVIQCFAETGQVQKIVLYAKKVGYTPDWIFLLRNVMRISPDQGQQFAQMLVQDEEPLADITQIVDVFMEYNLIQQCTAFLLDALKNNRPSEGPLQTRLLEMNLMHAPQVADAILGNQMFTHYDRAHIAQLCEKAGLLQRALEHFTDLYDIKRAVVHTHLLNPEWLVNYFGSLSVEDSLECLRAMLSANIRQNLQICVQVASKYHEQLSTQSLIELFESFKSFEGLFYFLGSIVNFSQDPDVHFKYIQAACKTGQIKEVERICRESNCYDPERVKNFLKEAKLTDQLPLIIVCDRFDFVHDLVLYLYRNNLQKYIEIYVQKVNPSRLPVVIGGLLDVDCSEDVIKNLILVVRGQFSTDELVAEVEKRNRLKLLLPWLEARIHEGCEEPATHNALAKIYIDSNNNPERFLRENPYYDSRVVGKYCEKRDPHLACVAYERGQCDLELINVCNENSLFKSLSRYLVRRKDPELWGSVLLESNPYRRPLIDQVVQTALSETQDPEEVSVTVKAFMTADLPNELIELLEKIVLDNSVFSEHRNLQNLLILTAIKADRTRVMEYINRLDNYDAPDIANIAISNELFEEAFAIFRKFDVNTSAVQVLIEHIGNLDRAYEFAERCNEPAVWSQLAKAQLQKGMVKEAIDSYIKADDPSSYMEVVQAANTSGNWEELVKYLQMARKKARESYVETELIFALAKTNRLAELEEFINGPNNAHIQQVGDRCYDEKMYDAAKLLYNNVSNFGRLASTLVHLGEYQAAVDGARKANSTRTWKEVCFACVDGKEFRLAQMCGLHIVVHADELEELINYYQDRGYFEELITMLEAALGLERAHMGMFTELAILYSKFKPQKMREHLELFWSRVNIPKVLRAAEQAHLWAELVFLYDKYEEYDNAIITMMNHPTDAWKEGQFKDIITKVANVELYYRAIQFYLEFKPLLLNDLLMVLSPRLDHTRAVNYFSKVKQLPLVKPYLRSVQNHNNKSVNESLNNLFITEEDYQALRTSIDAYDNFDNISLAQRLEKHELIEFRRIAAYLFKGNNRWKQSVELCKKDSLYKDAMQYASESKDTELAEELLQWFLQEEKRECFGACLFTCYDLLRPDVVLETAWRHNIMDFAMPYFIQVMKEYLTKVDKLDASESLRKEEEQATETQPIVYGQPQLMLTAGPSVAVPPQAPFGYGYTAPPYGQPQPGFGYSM

Kd: 123 µM
Substance: epsin CLAP domain (from UniProt Q9Y6I3)
